Test results published in patent US20140363377A1 (UNIVERSITY OF BRITISH COLUMBIA, published 2014).

B1: SPARC (Secreted Protein, Acidic, Rich in Cysteines), His-tagged, stably expressed in MIP101 cells (MIP/SP) (other, human, UniProt P09486 18-303, looked up)
chain: APQQEALPDETEVVEETVAEVTEVSVGANPVQVEVGEFDDGAEETEEEVVAENPCQNHHCKHGKVCELDENNTPMCVCQDPTSCPAPIGEFEKVCSNDNKTFDSSCHFFATKCTLEGTKKGHKLHLDYIGPCKYIPPCLDSELTEFPLRMRDWLKNVLVTLYERDEDNNLLTEKQKLRVKKIHENEKRLEAGDHPVELLARDFEKNYNMYIFPVHWQFGQLDQHPIDGYLSHTELAPLRAPLIPMEHCTTRFFETCDLDNDKYIALDEWAGCFGIKQKDIDKDLVI
notes: Present in membrane fractions of MIP/SP cell lysates used for co-immunoprecipitation; also called osteonectin; His-tagged SPARC protein; not shown: His tag

Assays:
[1] = biological target: T1, DR4, endogenous, in human cancer cell lysates (human, UniProt O00220 24-468); test: co-immunoprecipitation from subcellular fractions
T1 construct: also called TRAIL receptor DR4
T1 sequence (looked up): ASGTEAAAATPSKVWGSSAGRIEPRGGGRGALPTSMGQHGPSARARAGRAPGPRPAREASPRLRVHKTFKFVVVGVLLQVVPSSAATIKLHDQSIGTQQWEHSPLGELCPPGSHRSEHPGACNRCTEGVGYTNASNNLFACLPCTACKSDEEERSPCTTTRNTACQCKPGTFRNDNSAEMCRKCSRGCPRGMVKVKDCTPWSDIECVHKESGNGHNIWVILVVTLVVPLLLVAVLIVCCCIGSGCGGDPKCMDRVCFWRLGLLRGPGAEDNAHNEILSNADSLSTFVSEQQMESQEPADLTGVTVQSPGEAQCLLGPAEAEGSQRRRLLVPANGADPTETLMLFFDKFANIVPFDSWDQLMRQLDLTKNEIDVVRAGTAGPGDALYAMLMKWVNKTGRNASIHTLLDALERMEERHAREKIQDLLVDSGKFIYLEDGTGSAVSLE
Description: (§1) Cells were separated into nuclear, cytosolic, and membrane fractions using ProteoExtract Subcellular Proteome Extraction Kit (EMD Biosciences Inc.). […] Protein:Antibody mixture was then incubated with 30 μL of Protein A: Protein G (Sigma) (1:1) beads for 4 hours (4° C.).

[2] = biological target: B1; test: co-immunoprecipitation from subcellular fractions
Description: as §1

## B1
[1]
  binding result: no binding

B2: FADD, endogenous, in human cancer cell lysates (other, UniProt Q13158 1-208, looked up)
chain: MDPFLVLLHSVSSSLSSSELTELKFLCLGRVGKRKLERVQSGLDLFSMLLEQNDLEPGHTELLRELLASLRRHDLLRRVDDFEAGAAAGAAPGEEDLCAAFNVICDNVGKDWRRLARQLKVSDTKIDSIEDRYPRNLTERVRESLRIWKNTEKENATVAHLVGALRSCQMNLVADLVQEVQQARDLQNRSGAMSPMSWNSDASTSEAS
notes: also called Fas-associated death domain; p-FADD
[2]
  binding result: no binding
